Results on one molecule are retold here after patent US20130101549A1 (Biogen, published 2013).

Assay [1] addresses T1, human HER2/ErbB2 on cells (human, UniProt P04626 23-1255).
T1 construct: whole, on cells; also called hHER2/ErbB2; wild type HER2/ErbB
Kind of assay: FACS on HER2-expressing cells.

The next assay deals with T2, murine HVEM-Ig (mouse, UniProt Q80WM9 39-210).
T2 construct: Expressed and purified in house
T2 sequence (looked up): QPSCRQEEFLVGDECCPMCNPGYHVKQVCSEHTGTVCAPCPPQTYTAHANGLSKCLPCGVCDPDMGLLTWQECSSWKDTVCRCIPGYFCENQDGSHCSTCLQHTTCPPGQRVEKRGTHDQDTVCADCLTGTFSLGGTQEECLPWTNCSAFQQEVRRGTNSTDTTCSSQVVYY
As to the kind of experiment: ELISA, muHVEM-Ig coated at 0.2 ug/ml, HRP goat anti-human kappa; the number is C of the printed 4-P fit (A 0.045, B 0.716, D 1.298, R^2 0.996); Fab-Light is BIIB71F10-132 by paragraph 503. On the procedure: (§1) Human and murine ErbB2-Fc were obtained from R&D Systems. Wells of 96-well plates were coated with 2 ug/ml or 0.2 ug/ml of human or murine HER2-Fc by incubation overnight at 4-8° C. with either of these six proteins (80 ul/well of a 0.2 or 2 ug/ml solution in PBS). Wells were emptied, filled completely with a solution of PBS with 1% BSA (blocking buffer) and incubated at room temperature for 1 hour. Wells were emptied, washed twice PBS containing 0.05% Tween 20 (PBST) and filled with the samples (80 ul/well of 3× dilution series of the standard and supernatants in blocking buffer) prepared in another 96-well plate. After a 2-hour incubation at room temperature, the wells were emptied, washed three times with PBST and filled with a solution of HRP-conjugated goat pAbs anti-human kappa chain (80 ul/well of a 2000-fold dilution in blocking buffer). After 1-hour incubation, the wells were emptied and filled with a solution of HRP substrate prepared freshly. The color was left to develop for 3 minutes and was stopped by addition of an equal volume of 1N H₂SO₄. Absorbance was measured at 450 nm using a Plate Reader (SpectraMax, Molecular Devices). The data was processed and graphs were created using SoftMax Pro software.
(§2) Human and murine HVEM-Ig were expressed and purified in house.
In general terms: In an ELISA, binding on a coated surface is turned into a signal by an enzyme label.

In assay [2] the target is T3, human LTβR-Ig (human, UniProt P36941 31-227).
T3 construct: Expressed and purified in house; also called hLTbR-Ig; human LTBR-Ig
T3 sequence (P36941 31-227): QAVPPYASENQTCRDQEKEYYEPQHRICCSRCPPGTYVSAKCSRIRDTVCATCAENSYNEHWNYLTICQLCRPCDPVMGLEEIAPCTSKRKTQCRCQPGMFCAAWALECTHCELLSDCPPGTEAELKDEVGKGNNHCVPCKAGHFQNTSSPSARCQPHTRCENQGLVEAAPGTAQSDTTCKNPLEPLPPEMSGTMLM
As to the kind of experiment: ELISA, huLTBR-Ig coated at 0.2 ug/ml, HRP goat anti-human kappa; the number is C of the printed 4-P fit (A 0.057, B 0.9, D 1.548, R^2 0.998); Fab-Light is BIIB71F10-132 by paragraph 502. On the procedure:
as §1
(§3) Human and murine LTBR-Ig were expressed and purified in house.

The next assay addresses T4, human HVEM-Ig (human, UniProt Q92956 39-202).
T4 construct: Expressed and purified in house; also called HVEM-Fc; Herpes virus entry mediator-Ig
T4 sequence (looked up): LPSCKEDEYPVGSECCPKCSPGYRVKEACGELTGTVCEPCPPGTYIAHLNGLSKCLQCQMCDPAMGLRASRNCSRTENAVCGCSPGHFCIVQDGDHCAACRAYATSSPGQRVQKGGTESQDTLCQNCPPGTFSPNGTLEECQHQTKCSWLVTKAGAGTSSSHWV
Kind of assay: ELISA, huHVEM-Ig coated at 0.2 ug/ml, HRP goat anti-human kappa; the number is C of the printed 4-P fit (A 0.08, B 1.089, D 1.303, R^2 0.999); Fab-Light is BIIB71F10-132 by paragraph 503. On the procedure: as §1, §2

In assay [3] the target is T3, human LTβR-Ig. Kind of assay: ELISA, huLTBR-Ig coated at 2 ug/ml, HRP goat anti-human kappa; the number is C of the printed 4-P fit (A 0.025, B 0.807, D 1.574, R^2 0.998); Fab-Light is BIIB71F10-132 by paragraph 502. As for the experimental part: as §1, §3

B1: 71F10 Fab-hLIGHT fusion with the (G4S)4 linker (BIIB71F10-132) (other)
heavy: EVQLLESGGGLVQPGGSLRLSCAASGFTFSSYGMVWVRQAPGKGLEWVSSISSSGGLTWYADSVKGRFTISRDNSKNTLYLQMNSLRAEDTAVYYCASPPGIAVARDYWGQGTLVTVSSASTKGPSVFPLAPSSKSTSGGTAALGCLVKDYFPEPVTVSWNSGALTSGVHTFPAVLQSSGLYSLSSVVTVPSSSLGTQTYICNVNHKPSNTKVDKKVEPKSCDKGGGGSGGGGSGGGGSGGGGSNPAAHLTGANSSLTGSGGPLLWETQLGLAFLRGLSYHDGALVVTKAGYYYIYSKVQLGGVGCPLGLASTITHGLYKRTPRYPEELELLVSQQSPCGRATSSSRVWWDSSFLGGVVHLEAGEEVVVRVLDERLVRLRDGTRSYFGAFMV
light: DIQMTQSPSSLSASVGDRVTITCRASQGISNYLAWYQQKPGKVPKLLIYAASTLQSGVPSRFSGSGSGTDFTLTISSLQPEDVATYYCQKYNSALLTFGGGTKVEIKRTVAAPSVFIFPPSDEQLKSGTASVVCLLNNFYPREAKVQWKVDNALQSGNSQESVTEQDSKDSTYSLSSTLTLSKADYEKHKVYACEVTHQGLSSPVTKSFNRGEC
notes: Trimer of Fab-LIGHT units; also called 71F10 Fab-(G4S)4-LIGHT
The term EC50 denotes the concentration needed to bring the measured effect to its halfway point. The low end stands for greater potency, the high end for weaker potency. In the case of B1, the half-maximal effective concentration (EC50) in assay [1] is 0.5 nM; in the assay with murine HVEM-Ig, 26.3 ng/mL; with human LTβR-Ig [2], 1.91 ng/mL; in the assay with human HVEM-Ig, 3.98 ng/mL; in the assay with human LTβR-Ig [3], 2.69 ng/mL.
